Reference: patent publication US20170097333A1 (Merck Sharp & Dohme, published 2017)

T1: human LAG3 (human, UniProt P18627 23-525)
T1 construct: Expressed from a transgene on Jurkat cells
T1 sequence: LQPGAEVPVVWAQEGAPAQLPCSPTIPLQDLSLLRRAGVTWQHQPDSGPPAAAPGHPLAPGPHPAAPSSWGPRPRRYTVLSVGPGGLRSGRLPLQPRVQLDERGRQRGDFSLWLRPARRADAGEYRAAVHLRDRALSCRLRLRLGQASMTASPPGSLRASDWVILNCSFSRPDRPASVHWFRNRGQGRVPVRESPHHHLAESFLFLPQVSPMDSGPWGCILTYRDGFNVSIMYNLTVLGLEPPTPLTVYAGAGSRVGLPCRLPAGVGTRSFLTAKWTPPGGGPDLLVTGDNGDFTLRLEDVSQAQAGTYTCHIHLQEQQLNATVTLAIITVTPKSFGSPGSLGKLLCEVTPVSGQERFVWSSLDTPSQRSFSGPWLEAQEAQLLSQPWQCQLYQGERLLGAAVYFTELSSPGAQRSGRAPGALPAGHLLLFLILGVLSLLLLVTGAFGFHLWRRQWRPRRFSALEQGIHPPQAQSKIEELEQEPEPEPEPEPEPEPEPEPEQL


What was measured:
human CD3 (human) [1] = target: human CD3 (human) (UniProt P07766); assay: FACS staining of Jurkat clone A1, relative to control antibody mIgG1 pacblue
human CD3 (human) [2] = target: human CD3 (human) (UniProt P07766); assay: FACS staining of Jurkat clone D7, relative to control antibody mIgG1 pacblue
human CD3 (human) [3] = target: human CD3 (human) (UniProt P07766); assay: FACS staining of Jurkat clone E6, relative to control antibody mIgG1 pacblue
human CD3 (human) [4] = target: human CD3 (human) (UniProt P07766); assay: FACS staining of Jurkat clone F5, relative to control antibody mIgG1 pacblue
human CD3 (human) [5] = target: human CD3 (human) (UniProt P07766); assay: FACS staining of Jurkat clone G3, relative to control antibody mIgG1 pacblue
human CD3 (human) [6] = target: human CD3 (human) (UniProt P07766); assay: FACS staining of Jurkat clone H3, relative to control antibody mIgG1 pacblue
human CD3 (human) [7] = target: human CD3 (human) (UniProt P07766); assay: FACS staining of Jurkat clone F11, relative to control antibody mIgG1 pacblue
human CD3 (human) [8] = target: human CD3 (human) (UniProt P07766); assay: FACS staining of Jurkat clone G10, relative to control antibody mIgG1 pacblue
human CD3 (human) [9] = target: human CD3 (human) (UniProt P07766); assay: FACS staining of Jurkat clone G10 (passage P4), relative to control antibody mIgG1-pacblue
human CD3 (human) [10] = target: human CD3 (human) (UniProt P07766); assay: FACS staining of Jurkat clone G10 (passage P6), relative to control antibody mIgG1-pacblue
human CD3 (human) [11] = target: human CD3 (human) (UniProt P07766); assay: FACS staining of Jurkat clone G10 (passage P12), relative to control antibody mIgG1-pacblue
human CD3 (human) [12] = target: human CD3 (human) (UniProt P07766); assay: FACS staining of Jurkat clone G10 (passage P14), relative to control antibody mIgG1-pacblue
human CD3 (human) [13] = target: human CD3 (human) (UniProt P07766); assay: FACS staining of Jurkat clone G10 (passage P17), relative to control antibody mIgG1-pacblue
human CD3 (human) [14] = target: human CD3 (human) (UniProt P07766); assay: FACS staining of Jurkat clone G10 (passage ~P3), relative to control antibody mIgG1-pacblue
human LAG3 [15] = target: T1, human LAG3; assay: FACS staining of human LAG3 Jurkat clone G10 (passage P4), relative to control antibody Herceptin-DyLight 650
human LAG3 [16] = target: T1, human LAG3; assay: FACS staining of human LAG3 Jurkat clone G10 (passage P6), relative to control antibody Herceptin-DyLight 650
human LAG3 [17] = target: T1, human LAG3; assay: FACS staining of human LAG3 Jurkat clone G10 (passage P12), relative to control antibody Herceptin-DyLight 650
human LAG3 [18] = target: T1, human LAG3; assay: FACS staining of human LAG3 Jurkat clone G10 (passage P14), relative to control antibody Herceptin-DyLight 650
human LAG3 [19] = target: T1, human LAG3; assay: FACS staining of human LAG3 Jurkat clone G10 (passage P17), relative to control antibody Herceptin-DyLight 650
human LAG3 [20] = target: T1, human LAG3; assay: FACS staining of human LAG3 Jurkat clone G10 (passage ~P3), relative to control antibody Herceptin-DyLight 650

Chain of human CD3 (human) (P07766 23-207): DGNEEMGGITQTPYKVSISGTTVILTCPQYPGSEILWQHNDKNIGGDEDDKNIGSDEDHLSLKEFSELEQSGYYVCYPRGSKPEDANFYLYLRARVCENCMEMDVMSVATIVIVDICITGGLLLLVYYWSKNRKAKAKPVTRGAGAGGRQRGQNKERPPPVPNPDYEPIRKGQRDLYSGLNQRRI

CD3 expression (Fold Change) (human CD3 (human) [1]) [fold]	CD3 expression (Fold Change) (human CD3 (human) [2]) [fold]	CD3 expression (Fold Change) (human CD3 (human) [3]) [fold]	CD3 expression (Fold Change) (human CD3 (human) [4]) [fold]	CD3 expression (Fold Change) (human CD3 (human) [5]) [fold]	CD3 expression (Fold Change) (human CD3 (human) [6]) [fold]	CD3 expression (Fold Change) (human CD3 (human) [7]) [fold]	CD3 expression (Fold Change) (human CD3 (human) [8]) [fold]	CD3 expression (Fold Change) (human CD3 (human) [9]) [fold]	CD3 expression (Fold Change) (human CD3 (human) [10]) [fold]	CD3 expression (Fold Change) (human CD3 (human) [11]) [fold]	CD3 expression (Fold Change) (human CD3 (human) [12]) [fold]	CD3 expression (Fold Change) (human CD3 (human) [13]) [fold]	CD3 expression (Fold Change) (human CD3 (human) [14]) [fold]	Lag3 Expression (Fold Change) (human LAG3 [15]) [fold]	Lag3 Expression (Fold Change) (human LAG3 [16]) [fold]	Lag3 Expression (Fold Change) (human LAG3 [17]) [fold]	Lag3 Expression (Fold Change) (human LAG3 [18]) [fold]	Lag3 Expression (Fold Change) (human LAG3 [19]) [fold]	Lag3 Expression (Fold Change) (human LAG3 [20]) [fold]	Molecule
3.5	3.4	8.5	7.5	5.3	5	3.9	8.4	7.2	8	6.4	6.9	4.7	10.9							maHuCD3 pacblue (mouse anti-human CD3E antibody Clone SP34-2)
														5.6	2	7.3	7.2	7.3	6.1	Ab6: humanized anti-human LAG3 VH6 N55D/VL3, IgG4 S228P/Kappa (antibody, V domains shown, also called 51AHH; light chain 45AGX) VH: QMQLVQSGPEVKKPGTSVKVSCKASGYTFTDYNVDWVRQARGQRLEWIGDINPNDGGTIYAQKFQERVTITVDKSTSTAYMELSSLRSEDTAVYYCARNYRWFGAMDHWGQGTTVTVSS VL: DIVMTQTPLSLSVTPGQPASISCKASQSLDYEGDSDMNWYLQKPGQPPQLLIYGASNLESGVPDRFSGSGSGTDFTLKISRVEAEDVGVYYCQQSTEDPRTFGGGTKVEIKR
